Laboratory results as given in US20150291667A1.

Target: T1, CdtA-CdtC heterodimer
T1 chain 1: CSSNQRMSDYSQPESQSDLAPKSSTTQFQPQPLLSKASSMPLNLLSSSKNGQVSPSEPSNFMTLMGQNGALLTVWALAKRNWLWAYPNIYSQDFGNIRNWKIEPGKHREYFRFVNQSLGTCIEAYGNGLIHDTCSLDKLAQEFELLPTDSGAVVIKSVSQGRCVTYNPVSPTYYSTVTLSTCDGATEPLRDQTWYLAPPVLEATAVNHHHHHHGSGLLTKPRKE
T1 chain 2: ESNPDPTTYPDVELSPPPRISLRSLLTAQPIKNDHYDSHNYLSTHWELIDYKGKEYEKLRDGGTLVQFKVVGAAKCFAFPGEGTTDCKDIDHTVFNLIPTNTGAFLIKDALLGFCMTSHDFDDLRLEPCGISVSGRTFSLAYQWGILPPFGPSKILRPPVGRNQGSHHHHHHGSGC

B1: CdtB/DNase I hybrid protein (protein)
chain: NLSDFKVATWNLQGSSAVNESKWNINVRQLLSGEQGADILMVQEAGSLPSSAVRTSRVIQHGGTPIEEYTWNLGTRSRPNMVYIYYSRLDVGANRVNLAIVSRRQADEAFIVHSDSSVLQSRPAVGIRIGTDVFFTVHAAPGDAVAEIDALYDVYLDVQEKWGLEDVMLMGDFNAGCSYVRPSQWSSIRLWTSPTFQWLIPDSADTTATPTHCAYDRIVVAGMLLRGAVVPDSALPFNFQAANGLSDQLAQAISDHYPVEVMLKHHHHHHHMLEDPAANKAQKK
DNA nicking activity of reconstituted heterotrimer preparations (subunit protection): reconstituted heterotrimer preparations containing the CdtB/DNase I hybrid protein failed to convert supercoiled DNA to linear and relaxed forms
